Experimental data as given in PMC4299599, “Quantification of cytosolic interactions identifies Ede1 oligomers as key organizers of endocytosis” (Molecular Systems Biology, 2014).

T1: Pan1 (S. cerevisiae, UniProt P32521 1-1480)
T1 construct: Pan1, S. cerevisiae; also called Pan1-1myeGFP; Pan1-3mCherry; source: chromosomally tagged at the endogenous locus, in the cytoplasm of living S. cerevisiae cells
T1 sequence (looked up): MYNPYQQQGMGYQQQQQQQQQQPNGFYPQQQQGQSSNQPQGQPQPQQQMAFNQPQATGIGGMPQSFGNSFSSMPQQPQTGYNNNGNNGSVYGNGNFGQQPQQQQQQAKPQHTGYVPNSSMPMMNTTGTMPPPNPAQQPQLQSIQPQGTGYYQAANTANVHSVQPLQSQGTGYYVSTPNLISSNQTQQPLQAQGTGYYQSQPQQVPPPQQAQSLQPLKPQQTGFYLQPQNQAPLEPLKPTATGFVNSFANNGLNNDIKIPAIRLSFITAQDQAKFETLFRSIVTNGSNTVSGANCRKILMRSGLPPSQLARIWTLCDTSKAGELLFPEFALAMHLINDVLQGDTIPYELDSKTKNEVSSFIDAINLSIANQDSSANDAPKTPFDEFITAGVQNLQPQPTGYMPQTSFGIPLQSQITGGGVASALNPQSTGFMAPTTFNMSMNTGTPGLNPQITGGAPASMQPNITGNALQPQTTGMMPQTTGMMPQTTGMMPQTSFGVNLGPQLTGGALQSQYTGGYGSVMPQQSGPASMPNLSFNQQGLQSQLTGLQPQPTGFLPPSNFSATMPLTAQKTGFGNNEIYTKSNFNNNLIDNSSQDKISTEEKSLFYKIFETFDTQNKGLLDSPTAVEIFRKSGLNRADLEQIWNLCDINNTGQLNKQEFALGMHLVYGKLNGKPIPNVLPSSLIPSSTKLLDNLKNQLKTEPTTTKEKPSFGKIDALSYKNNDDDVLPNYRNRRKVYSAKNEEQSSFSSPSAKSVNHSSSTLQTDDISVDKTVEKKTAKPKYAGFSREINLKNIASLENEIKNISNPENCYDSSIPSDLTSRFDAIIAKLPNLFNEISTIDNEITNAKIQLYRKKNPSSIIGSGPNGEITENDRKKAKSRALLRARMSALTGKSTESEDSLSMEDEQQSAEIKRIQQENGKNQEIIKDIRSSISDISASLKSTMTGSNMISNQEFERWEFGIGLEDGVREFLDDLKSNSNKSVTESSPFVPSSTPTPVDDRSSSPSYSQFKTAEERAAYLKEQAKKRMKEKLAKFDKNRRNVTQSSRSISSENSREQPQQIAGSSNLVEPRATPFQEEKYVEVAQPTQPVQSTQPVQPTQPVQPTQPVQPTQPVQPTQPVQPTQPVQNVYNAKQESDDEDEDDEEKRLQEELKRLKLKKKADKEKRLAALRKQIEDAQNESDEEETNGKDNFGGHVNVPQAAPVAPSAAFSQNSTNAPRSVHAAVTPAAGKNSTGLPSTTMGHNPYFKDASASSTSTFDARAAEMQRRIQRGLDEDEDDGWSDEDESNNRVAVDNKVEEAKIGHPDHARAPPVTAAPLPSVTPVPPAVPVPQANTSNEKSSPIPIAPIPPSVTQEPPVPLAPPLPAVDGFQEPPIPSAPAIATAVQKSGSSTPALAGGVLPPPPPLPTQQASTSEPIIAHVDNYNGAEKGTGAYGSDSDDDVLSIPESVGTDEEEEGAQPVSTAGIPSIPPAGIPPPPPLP

B1: Sla2 (natural protein, S. cerevisiae, UniProt P33338 1-968, looked up)
chain: MSRIDSDLQKALKKACSVEETAPKRKHVRACIVYTWDHQSSKAVFTTLKTLPLANDEVQLFKMLIVLHKIIQEGHPSALAEAIRDRDWIRSLGRVHSGGSSYSKLIREYVRYLVLKLDFHAHHRGFNNGTFEYEEYVSLVSVSDPDEGYETILDLMSLQDSLDEFSQIIFASIQSERRNTECKISALIPLIAESYGIYKFITSMLRAMHRQLNDAEGDAALQPLKERYELQHARLFEFYADCSSVKYLTTLVTIPKLPVDAPDVFLINDVDESKEIKFKKREPSVTPARTPARTPTPTPPVVAEPAISPRPVSQRTTSTPTGYLQTMPTGATTGMMIPTATGAANAIFPQATAQMQPDFWANQQAQFANEQNRLEQERVQQLQQQQAQQELFQQQLQKAQQDMMNMQLQQQNQHQNDLIALTNQYEKDQALLQQYDQRVQQLESEITTMDSTASKQLANKDEQLTALQDQLDVWERKYESLAKLYSQLRQEHLNLLPRFKKLQLKVNSAQESIQKKEQLEHKLKQKDLQMAELVKDRDRARLELERSINNAEADSAAATAAAETMTQDKMNPILDAILESGINTIQESVYNLDSPLSWSGPLTPPTFLLSLLESTSENATEFATSFNNLIVDGLAHGDQTEVIHCVSDFSTSMATLVTNSKAYAVTTLPQEQSDQILTLVKRCAREAQYFFEDLMSENLNQVGDEEKTDIVINANVDMQEKLQELSLAIEPLLNIQSVKSNKETNPHSELVATADKIVKSSEHLRVDVPKPLLSLALMIIDAVVALVKAAIQCQNEIATTTSIPLNQFYLKNSRWTEGLISAAKAVAGATNVLITTASKLITSEDNENTSPEQFIVASKEVAASTIQLVAASRVKTSIHSKAQDKLEHCSKDVTDACRSLGNHVMGMIEDDHSTSQQQQPLDFTSEHTLKTAEMEQQVEILKLEQSLSNARKRLGEIRRHAYYNQDDD
notes: Sla2, S. cerevisiae; also called Sla2-3myeGFP; Sla2-3mCherry; source: chromosomally tagged at the endogenous locus, in the cytoplasm of living S. cerevisiae cells
B2: Bbc1 (natural protein, S. cerevisiae, UniProt P47068 1-1157, looked up)
chain: MSEPEVPFKVVAQFPYKSDYEDDLNFEKDQEIIVTSVEDAEWYFGEYQDSNGDVIEGIFPKSFVAVQGSEVGKEAESSPNTGSTEQRTIQPEVEQKDLPEPISPETKKETLSGPVPVPAATVPVPAATVPVPAATAVSAQVQHDSSSGNGERKVPMDSPKLKARLSMFNQDITEQVPLPKSTHLDLENIPVKKTIVADAPKYYVPPGIPTNDTSNLERKKSLKENEKKIVPEPINRAQVESGRIETENDQLKKDLPQMSLKERIALLQEQQRLQAAREEELLRKKAKLEQEHERSAVNKNEPYTETEEAEENEKTEPKPEFTPETEHNEEPQMELLAHKEITKTSREADEGTNDIEKEQFLDEYTKENQKVEESQADEARGENVAEESEIGYGHEDREGDNDEEKEEEDSEENRRAALRERMAKLSGASRFGAPVGFNPFGMASGVGNKPSEEPKKKQHKEKEEEEPEQLQELPRAIPVMPFVDPSSNPFFRKSNLSEKNQPTETKTLDPHATTEHEQKQEHGTHAYHNLAAVDNAHPEYSDHDSDEDTDDHEFEDANDGLRKHSMVEQAFQIGNNESENVNSGEKIYPQEPPISHRTAEVSHDIENSSQNTTGNVLPVSSPQTRVARNGSINSLTKSISGENRRKSINEYHDTVSTNSSALTETAQDISMAAPAAPVLSKVSHPEDKVPPHPVPSAPSAPPVPSAPSVPSAPPVPPAPPALSAPSVPPVPPVPPVSSAPPALSAPSIPPVPPTPPAPPAPPAPLALPKHNEVEEHVKSSAPLPPVSEEYHPMPNTAPPLPRAPPVPPATFEFDSEPTATHSHTAPSPPPHQNVTASTPSMMSTQQRVPTSVLSGAEKESRTLPPHVPSLTNRPVDSFHESDTTPKVASIRRSTTHDVGEISNNVKIEFNAQERWWINKSAPPAISNLKLNFLMEIDDHFISKRLHQKWVVRDFYFLFENYSQLRFSLTFNSTSPEKTVTTLQERFPSPVETQSARILDEYAQRFNAKVVEKSHSLINSHIGAKNFVSQIVSEFKDEVIQPIGARTFGATILSYKPEEGIEQLMKSLQKIKPGDILVIRKAKFEAHKKIGKNEIINVGMDSAAPYSSVVTDYDFTKNKFRVIENHEGKIIQNSYKLSHMKSGKLKVFRIVARGYVGW
notes: Bbc1, S. cerevisiae; also called Bbc1-3myeGFP; Bbc1-3mCherry; source: chromosomally tagged at the endogenous locus, in the cytoplasm of living S. cerevisiae cells
B3: Ede1 (Ede1-3myeGFP / Ede1-3mCherry) (natural protein, S. cerevisiae, UniProt P34216 1-1381, looked up)
chain: MASITFRTPLSSQEQAFYNQKFHQLDTEDLGVVTGEAVRPLFASSGLPGQLLSQVWATVDIDNKGFLNLNEFSAALRMIAQLQNAPNQPISAALYESTPTQLASFSINQNPAPMQSGSATGNTNNTDIPALSSNDIAKFSQLFDRTAKGAQTVAGDKAKDIFLKARLPNQTLGEIWALCDRDASGVLDKSEFIMAMYLIQLCMSHHPSMNTPPAVLPTQLWDSIRLEPVVVNQPNRTTPLSANSTGVSSLTRHSTISRLSTGAFSNAASDWSLSFEKKQQFDAIFDSLDKQHAGSLSSAVLVPFFLSSRLNQETLATIWDLADIHNNAEFTKLEFAIAMFLIQKKNAGVELPDVIPNELLQSPALGLYPPNPLPQQQSAPQIAIPSRASKPSLQDMPHQVSAPAVNTQPTVPQVLPQNSNNGSLNDLLALNPSFSSPSPTKAQTVVQNNTNNSFSYDNNNGQATLQQQQPQQPPPLTHSSSGLKKFTPTSNFGQSIIKEEPEEQEQLRESSDTFSAQPPPVPKHASSPVKRTASTTLPQVPNFSVFSMPAGAATSAATGAAVGAAVGAAALGASAFSRSSNNAFKNQDLFADGEASAQLSNATTEMANLSNQVNSLSKQASITNDKKSRATQELKRVTEMKNSIQIKLNNLRSTHDQNVKQTEQLEAQVLQVNKENETLAQQLAVSEANYHAAESKLNELTTDLQESQTKNAELKEQITNLNSMTASLQSQLNEKQQQVKQERSMVDVNSKQLELNQVTVANLQKEIDGLGEKISVYLTKQKELNDYQKTVEEQHAQLQAKYQDLSNKDTDLTDREKQLEERNRQIEEQENLYHQHVSKLQEMFDDLSQRKASFEKADQELKERNIEYANNVRELSERQMNLAMGQLPEDAKDIIAKSASNTDTTTKEATSRGNVHEDTVSKFVETTVENSNLNVNRVKDDEEKTERTESDVFDRDVPTLGSQSDSENANTNNGTQSGNETANPNLTETLSDRFDGDLNEYGIPRSQSLTSSVANNAPQSVRDDVELPETLEERDTINNTANRDNTGNLSHIPGEWEATPATASTDVLSNETTEVIEDGSTTKRANSNEDGESVSSIQESPKISAQPKAKTINEEFPPIQELHIDESDSSSSDDDEFEDTREIPSATVKTLQTPYNAQPTSSLEIHTEQVIKYPAPGTSPSHNEGNSKKASTNSILPVKDEFDDEFAGLEQAAVEEDNGADSESEFENVANAGSMEQFETIDHKDLDDELQMNAFTGTLTSSSNPTIPKPQVQQQSTSDPAQVSNDEWDEIFAGFGNSKAEPTKVATPSIPQQPIPLKNDPIVDASLSKGPIVNRGVATTPKSLAVEELSGMGFTEEEAHNALEKCNWDLEAATNFLLDSA
notes: Ede1, S. cerevisiae, homolog of mammalian Eps15; expressed from its own locus; also called wild-type Ede1; full-length Ede1; source: S. cerevisiae, chromosomally tagged at the endogenous locus, in living cells; not shown: 3myeGFP, C-terminal, kept; 3mCherry, C-terminal, kept
B4: ede1Δ591–1381 (myeGFP / mCherry fusions) (domain or fragment, S. cerevisiae, UniProt P34216 1-590, looked up)
chain: MASITFRTPLSSQEQAFYNQKFHQLDTEDLGVVTGEAVRPLFASSGLPGQLLSQVWATVDIDNKGFLNLNEFSAALRMIAQLQNAPNQPISAALYESTPTQLASFSINQNPAPMQSGSATGNTNNTDIPALSSNDIAKFSQLFDRTAKGAQTVAGDKAKDIFLKARLPNQTLGEIWALCDRDASGVLDKSEFIMAMYLIQLCMSHHPSMNTPPAVLPTQLWDSIRLEPVVVNQPNRTTPLSANSTGVSSLTRHSTISRLSTGAFSNAASDWSLSFEKKQQFDAIFDSLDKQHAGSLSSAVLVPFFLSSRLNQETLATIWDLADIHNNAEFTKLEFAIAMFLIQKKNAGVELPDVIPNELLQSPALGLYPPNPLPQQQSAPQIAIPSRASKPSLQDMPHQVSAPAVNTQPTVPQVLPQNSNNGSLNDLLALNPSFSSPSPTKAQTVVQNNTNNSFSYDNNNGQATLQQQQPQQPPPLTHSSSGLKKFTPTSNFGQSIIKEEPEEQEQLRESSDTFSAQPPPVPKHASSPVKRTASTTLPQVPNFSVFSMPAGAATSAATGAAVGAAVGAAALGASAFSRSSNNAFKNQDLF
notes: 1myeGFP fusion for FCS; diploid with one myeGFP and one mCherry allele for FCCS; Each copy carries one tag; also called ede1^Δ591–1391; source: S. cerevisiae, endogenously expressed truncation mutant, in living cells; not shown: myeGFP, C-terminal, kept; mCherry, C-terminal, kept

How the values were obtained:
[1] = biological target: the molecule itself; assay: fluorescence cross-correlation spectroscopy (FCCS); in the cytoplasm of living yeast cells; first-named protein green (3myeGFP or 1myeGFP; eGFP for Don1), second red (3mCherry); self-interaction in diploid strains with one allele of each colour; apparent or effective KD (Kdeff) from single-cell measurements; only Kdeff values < 1000 nM are shown; values for self-interactions are upper limits
Pan1 = biological target: T1, Pan1; assay: as above; conditions: partners not purified
[2] = biological target: the molecule itself; assay: FCS molecular brightness (counts per particle per second); living yeast cells, cytoplasm; brightness of GFP-tagged particles compared with 3myeGFP and Ent2-3myeGFP (monomers) or with wild-type Ede1; average of all particles
[3] = biological target: the molecule itself; assay: fluorescence cross-correlation spectroscopy (FCCS); self-interaction: living diploid yeast cells with one allele fused to (3)myeGFP and one to (3)mCherry, cytoplasm; apparent (effective) KD, to be taken as the upper limit since complexes of one colour are not seen

Binder | Kd [1] [nM] | Kd (Pan1) [nM] | molecular brightness per particle relative to 3myeGFP [2] [fold] | Kd [3] [nM]
B1 | 133 | 539 |  | 
B2 | 115 |  |  | 
B3 |  |  | ~2.5 | 127
B4 |  |  |  | > 1000
